Experimental data from the supplement of paper PMC5998384.

Tests used:
[1] = system: HeLa Kyoto; test: melting temperature (median over replicates), in situ; higher = more thermally stable
[2] = system: HeLa Kyoto; test: thermal stability score vs G1/S (z-score of summed log2 fold changes over temperatures); higher = more thermally stable than in G1/S
[3] = system: HeLa Kyoto; test: solubility in G1/S (NP-40 vs SDS abundance) (log2 ratio); higher = more soluble; conditions: cell cycle stage: G1/S
[4] = system: HeLa Kyoto; test: solubility change mitosis vs G1/S (difference of NP-40 vs SDS log2 ratios) (log2 ratio difference); higher = more soluble in mitosis
[5] = cell cycle stage: early G1 (4.5 h after nocodazole release)
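Wherever melting temperature (median over replicates), in situ is given: HeLa Kyoto cells synchronized by double thymidine or nocodazole block, proteins quantified by TMT10plex mass spectrometry, three independent biological replicates.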
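Wherever solubility change mitosis vs G1/S (difference of NP-40 vs SDS log2 ratios) is given: synchronized HeLa Kyoto cells (double thymidine block for G1/S, nocodazole release for mitosis), protein amounts in NP-40 versus SDS lysates quantified by mass spectrometry, three biological replicates.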
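Wherever solubility in G1/S (NP-40 vs SDS abundance) is given: HeLa Kyoto cells arrested at G1/S by double thymidine block, proteins quantified by TMT10plex mass spectrometry in mild NP-40 versus SDS extracts, three biological replicates.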
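Wherever thermal stability score vs G1/S (z-score of summed log2 fold changes over temperatures) is given: synchronized HeLa Kyoto cells, proteins quantified by TMT10plex mass spectrometry, three biological replicates, mitosis taken 0.5 h after nocodazole release, G1/S directly after double thymidine block.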

MAACGRVRRMFRLSAALHLLLLFAAGAEKLPGQGVHSQGQGPGANFVSFVGQAGGGGPAGQQLPQLPQSSQLQQQQQQQQQQQQPQPPQPPFPAGGPPARRGGAGAGGGWKLAEEESCREDVTRVCPKHTWSNNLAVLECLQDVREPENEISSDCNHLLWNYKLNLTTDPKFESVAREVCKSTITEIKECADEPVGKGYMVSCLVDHRGNITEYQCHQYITKMTAIIFSDYRLICGFMDDCKNDINILKCGSIRLGEKDAHSQGEVVSCLEKGLVKEAEEREPKIQVSELCKKAILRVAELSSDDFHLDRHLYFACRDDRERFCENTQAGEGRVYKCLFNHKFEESMSEKCREALTTRQKLIAQDYKVSYSLAKSCKSDLKKYRCNVENLPRSREARLSYLLMCLESAVHRGRQVSSECQGEMLDYRRMLMEDFSLSPEIILSCRGEIEHHCSGLHRKGRTLHCLMKVVRGEKGNLGMNCQQALQTLIQETDPGADYRIDRALNEACESVIQTACKHIRSGDPMILSCLMEHLYTEKMVEDCEHRLLELQYFISRDWKLDPVLYRKCQGDASRLCHTHGWNETSEFMPQGAVFSCLYRHAYRTEEQGRRLSRECRAEVQRILHQRAMDVKLDPALQDKCLIDLGKWCSEKTETGQELECLQDHLDDLVVECRDIVGNLTELESEDIQIEALLMRACEPIIQNFCHDVADNQIDSGDLMECLIQNKHQKDMNEKCAIGVTHFQLVQMKDFRFSYKFKMACKEDVLKLCPNIKKKVDVVICLSTTVRNDTLQEAKEHRVSLKCRRQLRVEELEMTEDIRLEPDLYEACKSDIKNFCSAVQYGNAQIIECLKENKKQLSTRCHQKVFKLQETEMMDPELDYTLMRVCKQMIKRFCPEADSKTMLQCLKQNKNSELMDPKCKQMITKRQITQNTDYRLNPMLRKACKADIPKFCHGILTKAKDDSELEGQVISCLKLRYADQRLSSDCEDQIRIIIQESALDYRLDPQLQLHCSDEISSLCAEEAAAQEQTGQVEECLKVNLLKIKTELCKKEVLNMLKESKADIFVDPVLHTACALDIKHHCAAITPGRGRQMSCLMEALEDKRVRLQPECKKRLNDRIEMWSYAAKVAPADGFSDLAMQVMTSPSKNYILSVISGSICILFLIGLMCGRITKRVTRELKDR [GLG1]
melting temperature ([1]; cell cycle stage: G1/S): 56.3 °C | melting temperature ([1]; cell cycle stage: mitosis): 56.5 °C | thermal stability score [2, 5]: -1.04 | thermal stability score ([2]; cell cycle stage: mitosis): -1.91 | solubility in G1/S (log2) [3]: -0.0893 | solubility change mitosis (log2) [4]: -0.0491

MAADSEPESEVFEITDFTTASEWERFISKVEEVLNDWKLIGNSLGKPLEKGIFTSGTWEEKSDEISFADFKFSVTHHYLVQESTDKEGKDELLEDVVPQSMQDLLGMNNDFPPRAHCLVRWYGLREFVVIAPAAHSDAVLSESKCNLLLSSVSIALGNTGCQVPLFVQIHHKWRRMYVGECQGPGVRTDFEMVHLRKVPNQYTHLSGLLDIFKSKIGCPLTPLPPVSIAIRFTYVLQDWQQYFWPQQPPDIDALVGGEVGGLEFGKLPFGACEDPISELHLATTWPHLTEGIIVDNDVYSDLDPIQAPHWSVRVRKAENPQCLLGDFVTEFFKICRRKESTDEILGRSAFEEEGKETADITHALSKLTEPASVPIHKLSVSNMVHTAKKKIRKHRGVEESPLNNDVLNTILLFLFPDAVSEKPLDGTTSTDNNNPPSESEDYNLYNQFKSAPSDSLTYKLALCLCMINFYHGGLKGVAHLWQEFVLEMRFRWENNFLIPGLASGPPDLRCCLLHQKLQMLNCCIERKKARDEGKKTSASDVTNIYPGDAGKAGDQLVPDNLKETDKEKGEVGKSWDSWSDSEEEFFECLSDTEELKGNGQESGKKGGPKEMANLRPEGRLYQHGKLTLLHNGEPLYIPVTQEPAPMTEDLLEEQSEVLAKLGTSAEGAHLRARMQSACLLSDMESFKAANPGCSLEDFVRWYSPRDYIEEEVIDEKGNVVLKGELSARMKIPSNMWVEAWETAKPIPARRQRRLFDDTREAEKVLHYLAIQKPADLARHLLPCVIHAAVLKVKEEESLENISSVKKIIKQIISHSSKVLHFPNPEDKKLEEIIHQITNVEALIARARSLKAKFGTEKCEQEEEKEDLERFVSCLLEQPEVLVTGAGRGHAGRIIHKLFVNAQRAAAMTPPEEELKRMGSPEERRQNSVSDFPPPAGREFILRTTVPRPAPYSKALPQRMYSVLTKEDFRLAGAFSSDTSFF [RAB3GAP1]
melting temperature ([1]; cell cycle stage: G1/S): 48.9 °C | melting temperature ([1]; cell cycle stage: mitosis): 49.4 °C | thermal stability score [2, 5]: -0.345 | thermal stability score ([2]; cell cycle stage: mitosis): 0.335 | solubility in G1/S (log2) [3]: -0.0664 | solubility change mitosis (log2) [4]: -0.113

MAAEKQVPGGGGGGGSGGGGGSGGGGSGGGRGAGGEENKENERPSAGSKANKEFGDSLSLEILQIIKESQQQHGLRHGDFQRYRGYCSRRQRRLRKTLNFKMGNRHKFTGKKVTEELLTDNRYLLLVLMDAERAWSYAMQLKQEANTEPRKRFHLLSRLRKAVKHAEELERLCESNRVDAKTKLEAQAYTAYLSGMLRFEHQEWKAAIEAFNKCKTIYEKLASAFTEEQAVLYNQRVEEISPNIRYCAYNIGDQSAINELMQMRLRSGGTEGLLAEKLEALITQTRAKQAATMSEVEWRGRTVPVKIDKVRIFLLGLADNEAAIVQAESEETKERLFESMLSECRDAIQVVREELKPDQKQRDYILEGEPGKVSNLQYLHSYLTYIKLSTAIKRNENMAKGLQRALLQQQPEDDSKRSPRPQDLIRLYDIILQNLVELLQLPGLEEDKAFQKEIGLKTLVFKAYRCFFIAQSYVLVKKWSEALVLYDRVLKYANEVNSDAGAFKNSLKDLPDVQELITQVRSEKCSLQAAAILDANDAHQTETSSSQVKDNKPLVERFETFCLDPSLVTKQANLVHFPPGFQPIPCKPLFFDLALNHVAFPPLEDKLEQKTKSGLTGYIKGIFGFRS [SRP68]
melting temperature ([1]; cell cycle stage: G1/S): 50.7 °C | melting temperature ([1]; cell cycle stage: mitosis): 49.4 °C | thermal stability score [2, 5]: -0.295 | thermal stability score ([2]; cell cycle stage: mitosis): -0.156 | solubility in G1/S (log2) [3]: -0.033 | solubility change mitosis (log2) [4]: 0.209

MAAEPLTELEESIETVVTTFFTFARQEGRKDSLSVNEFKELVTQQLPHLLKDVGSLDEKMKSLDVNQDSELKFNEYWRLIGELAKEIRKKKDLKIRKK [S100A13]
melting temperature ([1]; cell cycle stage: G1/S): 53.4 °C | melting temperature ([1]; cell cycle stage: mitosis): 52 °C | thermal stability score [2, 5]: -6.56 | thermal stability score ([2]; cell cycle stage: mitosis): -6.62 | solubility in G1/S (log2) [3]: -0.421 | solubility change mitosis (log2) [4]: 0.294

MAAESGSDFQQRRRRRRDPEEPEKTELSERELAVAVAVSQENDEENEERWVGPLPVEATLAKKRKVLEFERVYLDNLPSASMYERSYMHRDVITHVVCTKTDFIITASHDGHVKFWKKIEEGIEFVKHFRSHLGVIESIAVSSEGALFCSVGDDKAMKVFDVVNFDMINMLKLGYFPGQCEWIYCPGDAISSVAASEKSTGKIFIYDGRGDNQPLHIFDKLHTSPLTQIRLNPVYKAVVSSDKSGMIEYWTGPPHEYKFPKNVNWEYKTDTDLYEFAKCKAYPTSVCFSPDGKKIATIGSDRKVRIFRFVTGKLMRVFDESLSMFTELQQMRQQLPDMEFGRRMAVERELEKVDAVRLINIVFDETGHFVLYGTMLGIKVINVETNRCVRILGKQENIRVMQLALFQGIAKKHRAATTIEMKASENPVLQNIQADPTIVCTSFKKNRFYMFTKREPEDTKSADSDRDVFNEKPSKEEVMAATQAEGPKRVSDSAIIHTSMGDIHTKLFPVECPKTVENFCVHSRNGYYNGHTFHRIIKGFMIQTGDPTGTGMGGESIWGGEFEDEFHSTLRHDRPYTLSMANAGSNTNGSQFFITVVPTPWLDNKHTVFGRVTKGMEVVQRISNVKVNPKTDKPYEDVSIINITVK [PPWD1]
melting temperature ([1]; cell cycle stage: G1/S): 49.7 °C | melting temperature ([1]; cell cycle stage: mitosis): 49.8 °C | thermal stability score [2, 5]: 0.382 | thermal stability score ([2]; cell cycle stage: mitosis): 0.58 | solubility in G1/S (log2) [3]: -0.381 | solubility change mitosis (log2) [4]: -0.0306

MAAETLLSSLLGLLLLGLLLPASLTGGVGSLNLEELSEMRYGIEILPLPVMGGQSQSSDVVIVSSKYKQRYECRLPAGAIHFQREREEETPAYQGPGIPELLSPMRDAPCLLKTKDWWTYEFCYGRHIQQYHMEDSEIKGEVLYLGYYQSAFDWDDETAKASKQHRLKRYHSQTYGNGSKCDLNGRPREAEVRFLCDEGAGISGDYIDRVDEPLSCSYVLTIRTPRLCPHPLLRPPPSAAPQAILCHPSLQPEEYMAYVQRQADSKQYGDKIIEELQDLGPQVWSETKSGVAPQKMAGASPTKDDSKDSDFWKMLNEPEDQAPGGEEVPAEEQDPSPEAADSASGAPNDFQNNVQVKVIRSPADLIRFIEELKGGTKKGKPNIGQEQPVDDAAEVPQREPEKERGDPERQREMEEEEDEDEDEDEDEDERQLLGEFEKELEGILLPSDRDRLRSEVKAGMERELENIIQETEKELDPDGLKKESERDRAMLALTSTLNKLIKRLEEKQSPELVKKHKKKRVVPKKPPPSPQPTEEDPEHRVRVRVTKLRLGGPNQDLTVLEMKRENPQLKQIEGLVKELLEREGLTAAGKIEIKIVRPWAEGTEEGARWLTDEDTRNLKEIFFNILVPGAEEAQKERQRQKELESNYRRVWGSPGGEGTGDLDEFDF [OS9]
melting temperature ([1]; cell cycle stage: G1/S): 54.4 °C | melting temperature ([1]; cell cycle stage: mitosis): 53.8 °C | thermal stability score [2, 5]: 0.21 | thermal stability score ([2]; cell cycle stage: mitosis): -0.468 | solubility in G1/S (log2) [3]: 0.241 | solubility change mitosis (log2) [4]: -0.128

MAAETQTLNFGPEWLRALSSGGSITSPPLSPALPKYKLADYRYGREEMLALFLKDNKIPSDLLDKEFLPILQEEPLPPLALVPFTEEEQRNFSMSVNSAAVLRLTGRGGGGTVVGAPRGRSSSRGRGRGRGECGFYQRSFDEVEGVFGRGGGREMHRSQSWEERGDRRFEKPGRKDVGRPNFEEGGPTSVGRKHEFIRSESENWRIFREEQNGEDEDGGWRLAGSRRDGERWRPHSPDGPRSAGWREHMERRRRFEFDFRDRDDERGYRRVRSGSGSIDDDRDSLPEWCLEDAEEEMGTFDSSGAFLSLKKVQKEPIPEEQEMDFRPVDEGEECSDSEGSHNEEAKEPDKTNKKEGEKTDRVGVEASEETPQTSSSSARPGTPSDHQSQEASQFERKDEPKTEQTEKAEEETRMENSLPAKVPSRGDEMVADVQQPLSQIPSDTASPLLILPPPVPNPSPTLRPVETPVVGAPGMGSVSTEPDDEEGLKHLEQQAEKMVAYLQDSALDDERLASKLQEHRAKGVSIPLMHEAMQKWYYKDPQGEIQGPFNNQEMAEWFQAGYFTMSLLVKRACDESFQPLGDIMKMWGRVPFSPGPAPPPHMGELDQERLTRQQELTALYQMQHLQYQQFLIQQQYAQVLAQQQKAALSSQQQQQLALLLQQFQTLKMRISDQNIIPSVTRSVSVPDTGSIWELQPTASQPTVWEGGSVWDLPLDTTTPGPALEQLQQLEKAKAAKLEQERREAEMRAKREEEERKRQEELRRQQEEILRRQQEEERKRREEEELARRKQEEALRRQREQEIALRRQREEEERQQQEEALRRLEERRREEEERRKQEELLRKQEEEAAKWAREEEEAQRRLEENRLRMEEEAARLRHEEEERKRKELEVQRQKELMRQRQQQQEALRRLQQQQQQQQLAQMKLPSSSTWGQQSNTTACQSQATLSLAEIQKLEEERERQLREEQRRQQRELMKALQQQQQQQQQKLSGWGNVSKPSGTTKSLLEIQQEEARQMQKQQQQQQQHQQPNRARNNTHSNLHTSIGNSVWGSINTGPPNQWASDLVSSIWSNADTKNSNMGFWDDAVKEVGPRNSTNKNKNNASLSKSVGVSNRQNKKVEEEEKLLKLFQGVNKAQDGFTQWCEQMLHALNTANNLDVPTFVSFLKEVESPYEVHDYIRAYLGDTSEAKEFAKQFLERRAKQKANQQRQQQQLPQQQQQQPPQQPPQQPQQQDSVWGMNHSTLHSVFQTNQSNNQQSNFEAVQSGKKKKKQKMVRADPSLLGFSVNASSERLNMGEIETLDDY [GIGYF2]
melting temperature ([1]; cell cycle stage: G1/S): 49.4 °C | melting temperature ([1]; cell cycle stage: mitosis): 49.8 °C | thermal stability score [2, 5]: 0.406 | thermal stability score ([2]; cell cycle stage: mitosis): 0.959 | solubility in G1/S (log2) [3]: -0.0985 | solubility change mitosis (log2) [4]: -0.00842
